For this assay, the target named is T1, HA-tagged LEF-1 (UniProt Q9UJU2 1-399).
T1 construct: LEF-1 (lymphoid enhancer factor 1); written both HA-LEF-1 and LEF-1-HA; also called pHA-LEF-1; HA-LEF-1; source: HEK293, transfected, in lysate; NIH 3T3, transfected, in lysate and in fixed cells
The experiment in a line: co-IP; NIH 3T3 lysates, pLEF-1-HA co-transfected with pβ-catenin-myc constructs; IP with HA mAb or isotype control IgG, blot with anti-myc; densitometry over three independent experiments. The conditions noted are these: partners not purified.

Changes are numbered by the printed parent chain. Numbers in names are those of the source.

T1 sequence (Q9UJU2 whole entry): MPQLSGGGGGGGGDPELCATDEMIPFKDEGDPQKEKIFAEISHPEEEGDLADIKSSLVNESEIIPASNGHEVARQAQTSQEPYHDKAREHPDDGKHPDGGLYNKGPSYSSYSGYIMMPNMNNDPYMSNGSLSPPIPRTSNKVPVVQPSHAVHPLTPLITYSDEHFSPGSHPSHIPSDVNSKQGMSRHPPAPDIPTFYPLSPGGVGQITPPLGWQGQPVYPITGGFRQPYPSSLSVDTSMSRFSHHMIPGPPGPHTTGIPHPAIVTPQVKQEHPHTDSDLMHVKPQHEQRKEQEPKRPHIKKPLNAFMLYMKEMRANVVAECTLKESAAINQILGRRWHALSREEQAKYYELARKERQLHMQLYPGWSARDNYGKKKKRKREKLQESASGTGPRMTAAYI

B1: myc-tagged β-catenin S191A (natural protein, UniProt P35222 1-781, looked up)
chain: MATQADLMELDMAMEPDRKAAVSHWQQQSYLDSGIHSGATTTAPSLSGKGNPEEEDVDTSQVLYEWEQGFSQSFTQEQVADIDGQYAMTRAQRVRAAMFPETLDEGMQIPSTQFDAAHPTNVQRLAEPSQMLKHAVVNLINYQDDAELATRAIPELTKLLNDEDQVVVNKAAVMVHQLSKKEASRHAIMRAPQMVSAIVRTMQNTNDVETARCTAGTLHNLSHHREGLLAIFKSGGIPALVKMLGSPVDSVLFYAITTLHNLLLHQEGAKMAVRLAGGLQKMVALLNKTNVKFLAITTDCLQILAYGNQESKLIILASGGPQALVNIMRTYTYEKLLWTTSRVLKVLSVCSSNKPAIVEAGGMQALGLHLTDPSQRLVQNCLWTLRNLSDAATKQEGMEGLLGTLVQLLGSDDINVVTCAAGILSNLTCNNYKNKMMVCQVGGIEALVRTVLRAGDREDITEPAICALRHLTSRHQEAEMAQNAVRLHYGLPVVVKLLHPPSHWPLIKATVGLIRNLALCPANHAPLREQGAIPRLVQLLVRAHQDTQRRTSMGGTQQQFVEGVRMEEIVEGCTGALHILARDVHNRIVIRGLNTIPLFVQLLYSPIENIQRVAAGVLCELAQDKEAAEAIEAEGATAPLTELLHSRNEGVATYAAAVLFRMSEDKPQDYKKRLSVELTSSLFRTEPMAWNETADLGLDIGAQGEPLGYRQDDPSYRSFHSGGYGQDALGMDPMMEHEMGGHHPGADYPVDGLPDLGHAQDLMDGLPPGDSNQLAWFDTDL
notes: from the Long laboratory (Wu et al., 2008); also called pmyc-β-catenin-S191A; source: NIH 3T3, transfected, in lysate and in fixed cells
With B1, the “reduction in binding relative to β-catenin-WT (densitometry of the co-IP)” value was roughly 20%.

B2: myc-tagged β-catenin S605A (natural protein, UniProt P35222 1-781, looked up)
chain: B1 chain with A191S, S605A
notes: from the Long laboratory (Wu et al., 2008); also called pmyc-β-catenin-S605A; source: NIH 3T3, transfected, in lysate and in fixed cells
As to B2, the “reduction in binding relative to β-catenin-WT (densitometry of the co-IP)” value is roughly 50%.

For the origin of these results see publication PMC4657330, “Rac1 augments Wnt signaling by stimulating β-catenin–lymphoid enhancer factor-1 complex assembly independent of β-catenin nuclear import” (Journal of Cell Science, 2015).
